According to PMC10442857, “Cellular Uptake of a Fluorescent Ligand Reveals Ghrelin O-Acyltransferase Interacts with Extracellular Peptides and Exhibits Unexpected Localization for a Secretory Pathway Enzyme” (ACS Chemical Biology, 2023):
Peptide text beside a SMILES is read from it.

Legend:
GHSR (GHS-R1a) = target: T1, GHSR (GHS-R1a) (Homo sapiens, UniProt Q92847); assay: biochemical; type: binding; conditions: lower limit from test at 100 µM; read-out: IC50 against GHSR
T1 construct: expressed in transfected cells; host or cells: HEK 293 cells transfected with GHS-R1a (membrane suspension)
Description: Peptide binding affinity for the ghrelin receptor was determined using a competitive radioligand-displacement binding assay,[22] with details provided in the Supporting Information. […]
GHSR receptor binding assays. Peptide binding affinity for the ghrelin receptor was determined using a competitive radioligand-displacement binding assay.1 Assays were performed using GHS-R1a transfected HEK 293 cells as the receptor source and human His[125I]-ghrelin(1−28) (PerkinElmer Inc. NEX388010UC ) as the radioligand. Human ghrelin(1−28) was used as a reference to ensure the validity of the results. A suspension of membrane from HEK 293/GHS-R1a cells (100,000 cells per assay tube) were incubated with ghrelin(1−8) peptide analogues (at […]
ghrelin (15 pM per assay tube) in binding buffer (25 mM HEPES, 5 mM magnesium chloride, 1 mM calcium chloride, 2.5 mM EDTA, and 0.4% BSA, pH 7.4). The resulting suspension was incubated for 20 min under shaking (550 rpm) at 37 °C. Unbound [ 125I]-ghrelin was removed and the amount of [ 125I]-ghrelin bound to the membranes was measured by γ counter. IC 50 values were determined by nonlinear regression analysis to fit a four-parameter dose−response curve using Prism 6 (version 6.0c). All binding assays were performed in triplicate. […]

22Rv1 cells = assay: GOAT ligand labeling and imaging in 22Rv1 prostate cancer cells; type: cell-based, human; conditions: 5 μM ligand 15 with 40 μM ligand 12, 30 min RT, p < 0.05
Description: Prostate cancer (PCa) cells LNCaP (ATCC, CRL-1740) and 22Rv1 (ATCC, CRL-2505) were maintained in a 75 mL vented tissue culture flask (Celltreat) at 37 °C with 5% CO2 in complete 1× RPMI (Roswell Park Memorial Institute) media supplemented with 10% FBS and 1% (v/v) penicillin-streptomycin (Mediatech). Cell lines were passaged upon reaching 70% confluency (∼2–3 days). For microscopy studies, PCa cells were plated in 2 mL of complete 1× RPMI in a six-well plate (Corning) containing sterile 12 mm poly-L-lysine coated glass coverslips (Neuvitro, GG-12-PDL) in each well. The cells were allowed to adhere and reach 70% confluence on the coverslips prior to labeling.
Upon reaching confluency, coverslips with attached PCa cells were treated with ligands at the indicated concentration for 30 min at RT (unless otherwise stated). Cells were washed 3× with 1× phosphate-buffered saline (PBS) (Cellgro) and then fixed for immunofluorescence staining as described above. For ligand competition experiments, cells were incubated with 5 μM ligand 15 alone, 5 μM ligand 15 with 40 μM ligand 12, or PBS alone for 30 min at RT. […]
The fluorescence range of intensity was adjusted identically for each image series. […] Total cell fluorescence was determined by calculating the integrated density of mean gray value in a cell area compared to background as shown in eqs 4 and 5. […]

[1] = target: human ghrelin O-acyltransferase (hGOAT) of the hGOAT inhibition assays (human) (UniProt Q96T53)
[2] = target: T2, human ghrelin O-acyltransferase (hGOAT) of the hGOAT inhibition assays (human, UniProt Q96T53 1-435); assay: cell-based or functional assay
T2 sequence (looked up): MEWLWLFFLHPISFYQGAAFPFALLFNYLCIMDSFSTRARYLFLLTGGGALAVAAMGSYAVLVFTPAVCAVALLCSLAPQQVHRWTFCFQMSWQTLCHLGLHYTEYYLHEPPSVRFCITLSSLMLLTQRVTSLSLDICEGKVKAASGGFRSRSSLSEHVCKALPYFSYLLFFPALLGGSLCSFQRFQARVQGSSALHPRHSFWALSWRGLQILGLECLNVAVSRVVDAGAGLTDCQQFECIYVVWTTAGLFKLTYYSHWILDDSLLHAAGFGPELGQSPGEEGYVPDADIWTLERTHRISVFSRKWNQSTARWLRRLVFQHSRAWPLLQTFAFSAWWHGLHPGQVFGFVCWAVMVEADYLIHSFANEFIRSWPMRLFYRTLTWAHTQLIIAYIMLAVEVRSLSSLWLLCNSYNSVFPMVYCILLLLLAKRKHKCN

## CC(C)C[C@H](NC(=O)[C@H](Cc1cccc2ccccc12)NC(=O)[C@H](CN)NC(=O)[C@H](CO)NC(=O)CN)C(=O)N[C@@H](CO)C(=O)N1CCC[C@H]1C(=O)N[C@H](C(N)=O)[C@@H](C)O [ligand 12, H-GS-Dap-Nal-1-LSPT-NH2] (HELM PEPTIDE1{G.S.[NC[C@H](N[*:1])C(=O)[*:2]].[O=C([C@H](Cc1cccc2ccccc12)N[*:1])[*:2]].L.S.P.T.[am]}$$$$V2.0)
GHSR (GHS-R1a)
  IC50: ≥ 100000 nM
22Rv1 cells
  effect of unlabeled competitor on ligand 15 internalization (total cell fluorescence): significant reduction of ligand 15 internalization

## ligand 15, H-GS-Dap-Nal-1-LSPTK(SulfoCy5)-NH2 (peptide)
[1]
  inhibition of hGOAT activity by ligand 15 (IC50): 17 nM

B1: ligand 5, H-Inp-S-Dap-FLSPY-NH2 (peptide)
chain: XSXFLSPY
HELM: PEPTIDE1{[O=C(C1CCNCC1)[*:2]].S.[NC[C@H](N[*:1])C(=O)[*:2]].F.L.S.P.Y.[am]}$$$$V2.0
SMILES: CC(C)C[C@H](NC(=O)[C@H](Cc1ccccc1)NC(=O)[C@H](CN)NC(=O)[C@H](CO)NC(=O)C1CCNCC1)C(=O)N[C@@H](CO)C(=O)N1CCC[C@H]1C(=O)N[C@@H](Cc1ccc(O)cc1)C(N)=O
[2]
  inhibition of hGOAT activity (IC50 against hGOAT): > 100000 nM

B2: ligand 12, H-GS-Dap-Nal-1-LSPT-NH2 (peptide)
chain: GSXXLSPT
HELM: PEPTIDE1{G.S.[NC[C@H](N[*:1])C(=O)[*:2]].[O=C([C@H](Cc1cccc2ccccc12)N[*:1])[*:2]].L.S.P.T.[am]}$$$$V2.0
SMILES: CC(C)C[C@H](NC(=O)[C@H](Cc1cccc2ccccc12)NC(=O)[C@H](CN)NC(=O)[C@H](CO)NC(=O)CN)C(=O)N[C@@H](CO)C(=O)N1CCC[C@H]1C(=O)N[C@H](C(N)=O)[C@@H](C)O
[2]
  inhibition of hGOAT activity (IC50 against hGOAT): 6 nM
